In US5234903A, “Chemically modified hemoglobin as an effective, stable non-immunogenic red blood cell substitute” (Enzon, Inc., priority 1990, dated 1993):
Several values for one entry are separate records, joined by “and”; a condition that tells them apart may be missing. Equal values may be shown once. Read-outs that look alike come from different tables or passages of the source.

Tests used:
[1] = tested on: rats; experiment: Blood pressure, heart rate and breathing in rats after 70 percent exchange transfusion; assay type: in vivo; conditions: 70% exchange transfusion
Text: Acute toxicity studies may be performed in any suitable experimental animal. Preferably, a range of exposures may be tested; for example, by evaluating animals that have received a 50 or 70 percent exchange transfusion as compared to animals that have received a 100 percent exchange transfusion. Vital signs and visual observations should be recorded, and the animals may be sacrificed after a period of time estimated to correspond to one half-life of the hemoglobin formulation being tested. Histological evaluation using standard techniques may be used to determine the presence or absence of toxic effects on tissues including lung, kidney, liver, or brain.
The results of in vivo studies, in which rats were given a 70 percent exchange transfusion of hemoglobin prepared according to Examples I-V or control (native bovine hemoglobin) are shown in Table V (bracketed numbers are values obtained in rats that were not transfused). Note that the breathing rate decreased slightly, and the blood pressure increased by at most about 30-35 percent relative to control, showing a good physiologic response to the exchange transfusion.

[2] = Half-life and intravascular Met-Hb in rats after 70 percent exchange transfusion; assay type: in vivo; conditions: rats; for Half-life / Met-Hb at Half-life: 70% exchange transfusion
Text: Blood circulating time of polyalkylene oxide-modified Hb may, for example, and not by way of limitation, be evaluated by monitoring the concentration of hemoglobin in the plasma fraction (at 540 nm) of blood samples sequentially collected following exchange transfusion with modified Hb. Hemoglobin disappearance may be plotted as a function of time.

[3] = Oxygen binding: P50 (partial pressure of oxygen at 50% saturation) and Hill coefficient; conditions: Examples I-V and control
Experimental: Hemoglobin constitutes about 90% of the total protein in red blood cells. 100 ml of whole blood is capable of absorbing approximately 21 ml of gaseous oxygen due to the binding ability of hemoglobin. Equally important to the binding of oxygen, hemoglobin is also efficient in releasing the bound oxygen to tissues. The ability of hemoglobin to bind and release oxygen is often quantitatively expressed as the P50, the partial pressure of oxygen which results in fifty percent saturation of hemoglobin.
The resulting modified hemoglobin may then be tested to determine its P50 value so as to confirm that a clinically useful P50 has been achieved. Methods of P50 measurement include standard methods of analysis, such as, for example, methods utilizing the Hemox-Analyzer (TCS Medical Products Co., Huntingdon Valley, Pa.).
Following reduction, the hemoglobin may be reacted with an activated polyalkylene oxide under conditions which maintain the structural integrity of the oxygen binding site. In preferred embodiments of the invention, such conditions consist of a high anion concentration; in a specific embodiment this anion is chloride ion. In preferred embodiments, the chloride ion concentration is at least about 1.0M. […] According to the invention, the activated polyalkylene oxide may have one or more than one functional groups. The degree of modification for each preparation referred to in Table I is approximately 20 percent. This percent modification corresponds to about […] PEG molecules per each molecule of hemoglobin. The percent modification may be calculated according to the number of lysines modified by PEG and is based on a total of 48 surface lysines in bovine hemoglobin. The number may be determined by trinitrobenzene sulfonic acid (TNBS) assay (Habeef et al., 1966, Analyt. Biochem. 14:328-336).
(§1) The polyalkylene oxide modified hemoglobin may then be chemically characterized using methods known in the art. For example, the oxygen dissociation curve may be determined using standard techniques (for example, Imai et al., 1970, Biochim. Biophys. Acta 200: 189-196) allowing calculation of the P50 value. Additional parameters which would be desirable to measure include the methemoglobin content, the viscosity, the osmolality, the pH, and the Hill constant; the effects of changes in pH on the oxygen saturation curve may be determined as described in Bartels (1971, Blood oxygen dissociation curves: Mammals. in "Respiration and Circulation", Altman and Dittmer, Eds., Federation of American Societies for Experimental Biology, Bethesda).
Purification was carried out using a hollow-fiber ultrafiltration device with M.W. cutoff of 50 kD that is commercially available from American Fluid, Richboro, Pa. The advantage of this device relative to conventional tangential flat ultrafiltration membranes is its easy handling of viscous protein solutions such as the 6% PEG-Hb solution. Following purification, the P50 of the PEG-Hb was determined by a Hemox-Analyzer (TCS Medical Products Co., Huntington Valley, Pa.).

[4] = Viscosity and colloid osmotic pressure of PEG-Hb solutions; assay type: physicochemical
Text: as §1

[5] = Methemoglobin content of PEG-Hb preparations; assay type: physicochemical; conditions: in preparation
Text: as §1

[6] = Free iron by ferrozine assay; assay type: physicochemical; conditions: in preparation
Text: The P50 of the above PEG-bHb was 29mm Hg (Table IV). […] Half-life of this example injected into rats after a 70 percent exchange transfusion was approximately nine hours (Table IV).

[7] = Endotoxin (LAL test)
[8] = in vivo; cited from earlier work
[9] = in words; cited from earlier work

| Substance | Hill coeff. [3] | p50 [3] | Breathing [1] | Heart Rate [1] | Mean Arterial Press. [1] | Half-life [2] | Met-Hb at Half-life [2] | Osmotic Press. [4] | Viscosity [4] | MetHb [5] | Free Iron [6] | Endotoxin [7] | intravascular Met-bHb formation ([2]; 70 percent exchange transfusion) | colloid osmolality [4] | endotoxins ([7]; LAL test, in words) | Half-life [8] | transfusion half-life [8] | P50 / oxygen binding of stroma-free hemoglobin [9] |
| --- | --- | --- | --- | --- | --- | --- | --- | --- | --- | --- | --- | --- | --- | --- | --- | --- | --- | --- |
| Example III: bovine hemoglobin conjugated with SC-PEG (MW 3000) at a molar ratio of 30:1 | 2.05 | 25 mmHg | 79 min⁻¹ | 408 min⁻¹ | 132 mmHg | 12.4 h | 13.8% | 22 mmHg | 3.8 cp | < 5% | 20 µg/dL | < .1 EU |  |  |  |  |  |  |
| Example II: bovine hemoglobin deoxygenated through gas permeable membrane, conjugated to SC-PEG (5000) | 2.2 | 24 mmHg | 104 min⁻¹ | 408 min⁻¹ | 119 mmHg | 9.6 h | 5.8% | 22 mmHg | 4.5 cp | < 5% | 27 µg/dL | < .1 EU |  |  |  |  |  |  |
| U.S. Pat. No. 4,529,719: stroma-free hemoglobin cross-linked with a bis-diaspirin ester, reacted with pyridoxal phosphate |  |  |  |  |  |  |  |  |  |  |  |  |  |  |  | approximately 20 hours |  |  |
| Stroma-free hemoglobin: stroma-free hemoglobin, taken out of the red blood cell microenvironment |  |  |  |  |  |  |  |  |  |  |  |  |  |  |  |  | about 100 minutes | bind oxygen too tightly (a low P50) |

More lines, main results first:

| Hill coeff. [3] | p50 [3] | Substance | Breathing [1] | Heart Rate [1] | Mean Arterial Press. [1] | Half-life [2] | Met-Hb at Half-life [2] | Osmotic Press. [4] | Viscosity [4] | MetHb [5] | Free Iron [6] | Endotoxin [7] | intravascular Met-bHb formation ([2]; 70 percent exchange transfusion) | colloid osmolality [4] | endotoxins ([7]; LAL test, in words) | Half-life [8] | transfusion half-life [8] | P50 / oxygen binding of stroma-free hemoglobin [9] |
| --- | --- | --- | --- | --- | --- | --- | --- | --- | --- | --- | --- | --- | --- | --- | --- | --- | --- | --- |
| 1.8 | 20 mmHg | Example IV: bovine hemoglobin modified with SC-PEG (MW 2000) at a molar ratio of 40:1 | 83 min⁻¹ | 432 min⁻¹ | 129 mmHg | 13.0 h | 18.0% | 22 mmHg | 3.2 cp | < 5% | 20 µg/dL | < .1 EU |  |  |  |  |  |  |
| 2.2 |  | Example V: polymerized bovine hemoglobin modified first by BSC-PEG (MW 4600) 2:1, then SC-PEG (MW 5000) 10:1 | 90 min⁻¹ | 423 min⁻¹ | 97 mmHg | 19 h and 18.8 h | 12.0% | 20 mmHg | 4.0 cp | 2% |  | < .1 EU | 12% | 22 mm Hg | free of endotoxins |  |  |  |
| 2.4 |  | CONTROL: control (native bovine hemoglobin) [reference compound] | 100 min⁻¹ | 304 min⁻¹ | 90 mmHg | 1.5 h | 16.5% | 22 mmHg | 3.0 cp | < 5% | 24 µg/dL | < .1 EU |  |  |  |  |  |  |
